Results on one substance are retold here after paper PMC11309785.

One may read the Kd as the free concentration of one partner at which half of the binding sites on the other are occupied at equilibrium, for simple one-to-one binding. Low readings indicate a tighter complex, high ones a looser complex.

Common to all, as to assay: SPR; ProteOn XPR36, HC30M chip; IgG captured at low density (about 50 to 100 RU) by anti-human IgG (Fc) antibody, trimer flowed as analyte, highest concentration 3 µM; 1x HBS-EP+ pH 7.4 with BSA 1 mg/ml
Background: SPR reads the build-up and loss of mass on a sensor chip optically.

The target in test [1] is BG18 inferred germline IgG, Asp at the (D3-3)+2 position (human).
Chain of BG18 inferred germline IgG, Asp at the (D3-3)+2 position (human) (heavy, as listed by the source, chain 1 of 2): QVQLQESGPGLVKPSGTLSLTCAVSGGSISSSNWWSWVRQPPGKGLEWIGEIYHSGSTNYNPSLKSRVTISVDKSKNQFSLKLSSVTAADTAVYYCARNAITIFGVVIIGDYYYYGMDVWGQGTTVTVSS
Chain of BG18 inferred germline IgG, Asp at the (D3-3)+2 position (human) (light, as listed by the source, chain 2 of 2): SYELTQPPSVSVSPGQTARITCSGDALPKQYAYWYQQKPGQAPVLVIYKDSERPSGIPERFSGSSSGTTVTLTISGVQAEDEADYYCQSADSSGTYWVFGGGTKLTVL
Test [2] concerns the target BG18 inferred germline IgG, Glu at the (D3-3)+2 position (human).
In test [3] the target is BG18 inferred germline IgG, Gly at the (D3-3)+2 position (human).
Chain of BG18 inferred germline IgG, Gly at the (D3-3)+2 position (human) (heavy, as listed by the source, chain 1 of 2): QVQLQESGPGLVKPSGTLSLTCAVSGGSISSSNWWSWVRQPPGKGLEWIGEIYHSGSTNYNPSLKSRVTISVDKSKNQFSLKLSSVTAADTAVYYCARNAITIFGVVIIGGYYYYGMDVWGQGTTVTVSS
Chain of BG18 inferred germline IgG, Gly at the (D3-3)+2 position (human) (light, as listed by the source, chain 2 of 2): as the sequence (light, as listed by the source, chain 2 of 2) above

Chain of BG18 inferred germline IgG, Glu at the (D3-3)+2 position (human) (heavy, as listed by the source, chain 1 of 2): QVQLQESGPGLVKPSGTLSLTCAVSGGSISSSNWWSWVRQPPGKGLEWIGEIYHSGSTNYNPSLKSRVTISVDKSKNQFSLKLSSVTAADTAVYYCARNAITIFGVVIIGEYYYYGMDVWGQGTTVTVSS
Chain of BG18 inferred germline IgG, Glu at the (D3-3)+2 position (human) (light, as listed by the source, chain 2 of 2): as the sequence (light, as listed by the source, chain 2 of 2) above

Regarding “N332-GT5 trimer (BG505_MD65_congly_N332-GT5)”, the equilibrium dissociation constant (Kd) was 0.039 µM in test [1], 0.0007 µM in test [2] and 1.79 µM in test [3].
